One substance from patent US20100150834A1, “HIGH AFFINITY EPHB RECEPTOR BINDING COMPOUNDS AND METHODS OF USE THEREOF” (priority 2006, published 2010) can be followed below.

What all share (test): EphB receptor specificity (% binding), Table 1
Assay [1] concerns the target EphB2 (Homo sapiens, UniProt P29323). As to conditions: binding to EphB2.
For assay [2], the target named is T1, EphB6 (Homo sapiens, UniProt O15197).
T1 sequence (O15197 32-1021): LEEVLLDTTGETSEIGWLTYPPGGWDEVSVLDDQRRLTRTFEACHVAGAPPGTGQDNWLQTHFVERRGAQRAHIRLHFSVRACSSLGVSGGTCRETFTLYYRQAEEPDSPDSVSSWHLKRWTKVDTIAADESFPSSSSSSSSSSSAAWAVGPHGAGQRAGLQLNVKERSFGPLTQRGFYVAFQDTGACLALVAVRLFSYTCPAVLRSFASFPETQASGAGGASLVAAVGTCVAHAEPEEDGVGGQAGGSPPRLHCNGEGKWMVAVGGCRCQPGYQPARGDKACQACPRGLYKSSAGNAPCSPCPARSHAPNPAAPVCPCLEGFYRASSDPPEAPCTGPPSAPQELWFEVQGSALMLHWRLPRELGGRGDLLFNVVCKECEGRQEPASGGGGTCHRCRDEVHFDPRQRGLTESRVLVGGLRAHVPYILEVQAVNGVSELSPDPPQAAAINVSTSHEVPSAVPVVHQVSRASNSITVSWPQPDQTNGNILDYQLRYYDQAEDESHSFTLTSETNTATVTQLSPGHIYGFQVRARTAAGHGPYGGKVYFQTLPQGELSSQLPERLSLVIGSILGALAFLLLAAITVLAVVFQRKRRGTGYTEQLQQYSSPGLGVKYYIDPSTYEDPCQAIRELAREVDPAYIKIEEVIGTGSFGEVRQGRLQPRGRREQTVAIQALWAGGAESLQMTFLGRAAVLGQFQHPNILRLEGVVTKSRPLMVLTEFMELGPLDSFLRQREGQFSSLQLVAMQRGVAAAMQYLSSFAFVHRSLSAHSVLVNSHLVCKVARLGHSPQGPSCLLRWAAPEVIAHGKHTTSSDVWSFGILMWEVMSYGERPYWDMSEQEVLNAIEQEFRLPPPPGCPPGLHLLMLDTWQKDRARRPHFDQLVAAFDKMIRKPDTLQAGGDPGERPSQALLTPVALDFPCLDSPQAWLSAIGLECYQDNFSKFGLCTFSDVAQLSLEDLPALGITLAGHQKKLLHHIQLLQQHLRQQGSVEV
As to conditions: binding to EphB6.

Assay [3] concerns the target T2, EphB4 (Mus musculus, UniProt P54761).
T2 sequence (P54761 16-987): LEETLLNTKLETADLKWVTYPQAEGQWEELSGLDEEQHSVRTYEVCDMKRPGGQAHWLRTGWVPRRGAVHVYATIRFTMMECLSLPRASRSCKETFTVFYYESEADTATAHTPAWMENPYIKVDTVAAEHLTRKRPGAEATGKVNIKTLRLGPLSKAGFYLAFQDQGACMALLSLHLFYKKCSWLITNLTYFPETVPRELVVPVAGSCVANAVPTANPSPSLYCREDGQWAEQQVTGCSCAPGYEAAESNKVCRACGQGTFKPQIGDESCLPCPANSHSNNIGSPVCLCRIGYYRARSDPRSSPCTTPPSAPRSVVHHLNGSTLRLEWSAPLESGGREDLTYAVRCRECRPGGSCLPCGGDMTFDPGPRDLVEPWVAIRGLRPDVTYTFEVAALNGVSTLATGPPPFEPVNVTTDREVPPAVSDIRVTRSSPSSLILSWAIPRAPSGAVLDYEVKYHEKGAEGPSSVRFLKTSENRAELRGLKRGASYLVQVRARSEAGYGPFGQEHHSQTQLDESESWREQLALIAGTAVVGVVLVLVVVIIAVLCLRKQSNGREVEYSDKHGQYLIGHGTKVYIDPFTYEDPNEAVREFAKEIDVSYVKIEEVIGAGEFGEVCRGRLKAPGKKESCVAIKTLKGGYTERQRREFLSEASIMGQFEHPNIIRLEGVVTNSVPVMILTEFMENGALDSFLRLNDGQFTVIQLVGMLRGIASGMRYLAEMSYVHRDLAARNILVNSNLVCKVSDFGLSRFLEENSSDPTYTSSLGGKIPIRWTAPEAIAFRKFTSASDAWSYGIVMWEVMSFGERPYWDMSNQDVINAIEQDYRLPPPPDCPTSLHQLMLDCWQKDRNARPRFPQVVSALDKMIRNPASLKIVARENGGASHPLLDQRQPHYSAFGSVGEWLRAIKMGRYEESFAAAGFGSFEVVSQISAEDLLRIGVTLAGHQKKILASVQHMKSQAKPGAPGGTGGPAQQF
As to conditions: binding to EphB4.

Assay [4] concerns EphB1. The conditions noted are these: binding to EphB1.
For assay [5], the target named is EphB3 (Homo sapiens, UniProt P54753). As to conditions: binding to EphB3.
EphB3, sequence (P54753 34-998): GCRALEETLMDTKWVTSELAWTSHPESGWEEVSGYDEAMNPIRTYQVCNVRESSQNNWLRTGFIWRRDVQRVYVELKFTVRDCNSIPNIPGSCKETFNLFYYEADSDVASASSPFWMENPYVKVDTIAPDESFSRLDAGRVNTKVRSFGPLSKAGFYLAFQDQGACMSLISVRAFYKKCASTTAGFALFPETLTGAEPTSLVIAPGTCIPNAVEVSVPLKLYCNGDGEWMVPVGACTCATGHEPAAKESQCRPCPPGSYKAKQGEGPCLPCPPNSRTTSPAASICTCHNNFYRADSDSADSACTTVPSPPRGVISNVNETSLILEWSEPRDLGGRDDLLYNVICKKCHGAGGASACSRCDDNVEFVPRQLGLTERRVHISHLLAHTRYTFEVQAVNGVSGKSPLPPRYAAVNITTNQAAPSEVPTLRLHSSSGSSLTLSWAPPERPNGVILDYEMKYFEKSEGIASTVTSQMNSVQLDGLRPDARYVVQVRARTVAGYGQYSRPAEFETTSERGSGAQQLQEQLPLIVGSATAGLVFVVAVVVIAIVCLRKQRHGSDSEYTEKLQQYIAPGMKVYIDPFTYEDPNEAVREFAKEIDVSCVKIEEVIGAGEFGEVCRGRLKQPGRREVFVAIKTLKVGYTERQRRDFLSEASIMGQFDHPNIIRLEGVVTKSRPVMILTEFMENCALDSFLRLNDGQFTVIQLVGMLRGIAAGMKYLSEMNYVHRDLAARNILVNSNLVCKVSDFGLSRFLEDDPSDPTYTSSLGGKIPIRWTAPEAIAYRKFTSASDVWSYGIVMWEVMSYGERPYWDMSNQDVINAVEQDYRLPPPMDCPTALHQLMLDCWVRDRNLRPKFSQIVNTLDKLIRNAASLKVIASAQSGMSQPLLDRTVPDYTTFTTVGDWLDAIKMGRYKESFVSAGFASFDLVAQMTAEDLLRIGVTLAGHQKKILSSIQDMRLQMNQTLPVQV

EphB2, sequence (P29323 19-1055): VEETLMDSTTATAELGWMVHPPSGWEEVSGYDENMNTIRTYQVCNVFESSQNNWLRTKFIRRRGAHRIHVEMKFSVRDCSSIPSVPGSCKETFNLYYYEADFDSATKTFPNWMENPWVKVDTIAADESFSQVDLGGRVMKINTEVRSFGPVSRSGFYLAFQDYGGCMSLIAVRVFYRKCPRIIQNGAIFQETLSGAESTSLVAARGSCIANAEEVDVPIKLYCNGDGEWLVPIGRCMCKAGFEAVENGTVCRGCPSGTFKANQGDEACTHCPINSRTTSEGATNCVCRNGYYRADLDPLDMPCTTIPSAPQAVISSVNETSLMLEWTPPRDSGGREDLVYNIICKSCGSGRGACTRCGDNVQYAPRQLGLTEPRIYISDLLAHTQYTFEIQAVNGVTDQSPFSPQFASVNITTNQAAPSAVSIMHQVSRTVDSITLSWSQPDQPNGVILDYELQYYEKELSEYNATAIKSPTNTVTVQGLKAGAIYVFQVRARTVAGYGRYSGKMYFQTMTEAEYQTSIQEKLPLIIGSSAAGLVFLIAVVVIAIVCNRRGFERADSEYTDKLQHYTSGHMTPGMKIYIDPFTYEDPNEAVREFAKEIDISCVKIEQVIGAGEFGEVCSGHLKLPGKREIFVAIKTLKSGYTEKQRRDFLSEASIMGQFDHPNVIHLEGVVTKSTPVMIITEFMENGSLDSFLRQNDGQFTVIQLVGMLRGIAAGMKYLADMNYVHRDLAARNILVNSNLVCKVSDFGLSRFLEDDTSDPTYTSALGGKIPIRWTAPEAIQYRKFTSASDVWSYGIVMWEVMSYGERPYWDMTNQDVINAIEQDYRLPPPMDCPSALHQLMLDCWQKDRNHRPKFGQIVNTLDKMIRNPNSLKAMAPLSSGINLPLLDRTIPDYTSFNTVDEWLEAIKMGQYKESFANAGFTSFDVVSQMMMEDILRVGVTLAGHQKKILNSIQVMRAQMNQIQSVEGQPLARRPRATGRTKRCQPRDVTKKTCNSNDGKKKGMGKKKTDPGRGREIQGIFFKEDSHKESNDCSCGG

On to “26 (LPHGPVAAWDA; EphB4-binding peptide) [compound 26]”, for which the “EphB Receptor Specificity (% Binding) B2” value in assay [1] was determined as 15%. Further, the “EphB Receptor Specificity (% Binding) B6” value in assay [2] is recorded as 4%. The “EphB Receptor Specificity (% Binding) B4” value in assay [3] is reported as 100%. Further, the “EphB Receptor Specificity (% Binding) B1” value in assay [4] was found to be 2%. Besides, the “EphB Receptor Specificity (% Binding) B3” value in assay [5] is on record as 2%.
